Here are results for one molecule from patent publication US9889179B2, “FGF-18 compound dosing regimen” (MERCK PATENT GMBH, priority 2014, dated 2018).

Data set [1] relates to ACLT+tMx model of instability-induced OA. The data set can be described thus: ACLT+tMx model of instability-induced OA, cartilage matrix deposition by Safranin-O (Example 1). It is filed as in vivo, male Lewis rats. As to the method: The anterior cruciate ligament transection with resection of the medial meniscus (ACLT+tMx) model of instability-induced OA was performed in male Lewis rats 10-15 weeks of age. Briefly, under anesthesia with Isoflurane, the joint capsule of the right knee of each rat was opened, the anterior cruciate and the meniscus fixating ligaments were sharply transected, the meniscus was removed and the capsule, muscles and skin closed by sutures. Animals were randomly allocated into 10 groups of n=10 each. The following dosages were investigated: 0, 0.3, 1, 3 and 10 μg per intra-articular injection. Groups 1-5 received one cycle of three single injections at weekly intervals, group 6-10 three single injections at monthly intervals. Intra-articular treatment was started three weeks post-surgery. At this time pathophysiological changes are already mainifest, e.g., cartilage matrix loss. Animals were euthanized 17 weeks after surgery and joints were investigated.

The test system of data set [2] is rat model of OA (ACLT with tMx). The data set can be described thus: ACLT+tMx rat model of OA, intracycle dosing frequency of sprifermin (Example 6). Format: in vivo, male Lister Hooded Rats. The procedure:
The goal of this study was to evaluate the effect of different intracycle dosing frequency of the same total dosage (3×1 μg) of sprifermin on cartilage volume in a rat model of OA. The anterior cruciate ligament transection (ACLT) with resection of the medial meniscus (tMx) was performed as disclosed in Example 1. Joints from male Lister Hooded Rats (200-260 g, Charles River) were used in this study. Animals were euthanized 18 weeks post-surgery.
The changes in the joint are related to clinical assessments in OA (cartilage loss, osteophytes, subchondral sclerosis). One μg sprifermin in saline was injected three times either weekly, every 2nd, every 3rd, every 4th or every 5th week and compared to appropriate vehicle groups. Body weight, joint diameters and clinical health scores were investigated weekly.

Entries after “also recorded” stand apart in the source; their conditions may differ.

B1: trFGF-18: recombinant truncated form of human FGF-18 (170 amino acids, SEQ ID NO: 2), produced in E. coli (protein)
chain: MEENVDFRIHVENQTRARDDVSRKQLRLYQLYSRTSGKHIQVLGRRISARGEDGDKYAQLLVETDTFGSQVRIKGKETEFYLCMNRKGKLVGKPDGTSKECVFIEKVLENNYTALMSAKYSGWYVGFTKKGRPRKGPKTRENQQDVHFMKRYPKGQPELQKPFKYTTVTK
modifications: Recombinant truncated FGF-18(trFGF-18)
In the case of B1, the “dose at which neo-formation of cartilaginous tissue became significant” value in data set [1] (lateral tibia, independently of the injection regime (three i.a. injections weekly or monthly), 17 weeks after surgery) worked out at 1 μg/joint; in data set [1] (medial tibia, one-monthly regimen, three i.a. injections), 0.3 μg/joint; in data set [1] (medial tibia, one-weekly regimen, three i.a. injections), 1 μg/joint. Moreover, the “cartilage denudation, stereology” value in data set [2] (3 x 1 μg/joint, 18 weeks post-surgery) is “prevented more or less complete cartilage denudation”. Besides, in data set [2] (One μg/joint once every 3rd week, three injections in total, listed as rhFGF-18), the “cartilage volume on medial tibia” value was “statistically significant difference over saline; also recorded: most beneficial structural outcome”. Further, the “cartilage volume compared to placebo” value in data set [2] (all groups treated (weekly to every 5th week)) is listed as “higher cartilage volume values”. For the same molecule, in data set [2] (between injections every 2nd, 3rd or 4th week), the joint diameters entry is given as “No significant differences”. Moreover, in data set [2] (injected every 5th week), the “AUC of joint diameters” value is on record as “the same as with saline injections”. In data set [2] (injections in week 3, 4 and 5 versus week 3, 8 and 13), the “joint diameters (AUC of joint diameter difference)” value is given as “significantly higher”. In addition, the body weight gain entry in data set [2] (intra-articular injections, 3 x 1 μg) is recorded as “no influence”.
